Target: T1, human CTLA-4 (AA Ala37-Ser160) - Fc Tag fusion protein (AcroBiosystem, catalog no. CT4-H5255) (human, UniProt P16410 37-160)
T1 construct: range 37-160; Bought reagent, coated to the ELISA plate wells as capture reagent; also called human CTLA-4 - Fc Tag fusion protein; not shown: Fc tag
T1 sequence (looked up): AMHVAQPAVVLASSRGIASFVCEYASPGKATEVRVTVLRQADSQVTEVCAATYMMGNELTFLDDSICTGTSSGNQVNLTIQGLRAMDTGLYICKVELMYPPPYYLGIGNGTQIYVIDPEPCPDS
Experiment: in-house sandwich ELISA, CTLA-4-Fc coated on plate, HHC MET in rat plasma

- binding result: binds
B1: HHC MET (VHH)
chain: EVQLVESGGGLVQAGGSLRLSCAASGGTFSFYGMGWFRQAPGKEQEFVADIRTSAGRTYYADSVKGRFTISRDNAKNTVYLQMNSLKPEDTAVYYCAAEMSGISGWDYWGQGTQVTVSSGGGGSGGGSEVQLVESGGGLVQAGGSLRLSCAASGGTFSFYGMGWFRQAPGKEQEFVADIRTSAGRTYYADSVKGRFTISRDNAKNTVYLQMNSLKPEDTAVYYCAAEMSGISGWDYWGQGTQVTVSS
notes: Single polypeptide expressed in E. coli; In the ELISA it stood as free protein in rat plasma (calibration standards and samples); also called free HHC MET

From patent publication WO2021136808A1 (dated 2021)
